According to US20040049009A1, “Methods for improving the antagonistic/agonistic properties of peptidic antagonists/agonists of the corticotropin-releasing factor receptor (crfr)” (priority 2000, published 2004):
Positions count from the first letter of the chain named. Ends that are not written are not given here.

Tests used:
[1] = target: T1, rat CRF binding protein C-terminally fused with a His6 sequence (rat) (UniProt P24388); experiment: SPA competition with 0.1 nM [125I-Tyr0]h/rCRF, His-tagged rCRFBP; 95% CI (45-70)
T1 sequence: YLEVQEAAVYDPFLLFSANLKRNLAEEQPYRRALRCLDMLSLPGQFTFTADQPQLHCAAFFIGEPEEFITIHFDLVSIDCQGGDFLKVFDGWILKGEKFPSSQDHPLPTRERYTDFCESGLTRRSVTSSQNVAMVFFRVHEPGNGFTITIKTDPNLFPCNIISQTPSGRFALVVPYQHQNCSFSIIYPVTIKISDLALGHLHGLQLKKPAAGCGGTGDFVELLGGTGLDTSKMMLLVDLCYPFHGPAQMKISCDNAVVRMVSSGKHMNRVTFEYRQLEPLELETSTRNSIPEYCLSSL

[2] = target: mouse CRF receptor, type 2β (mouse) (UniProt Q60748); experiment: SPA competition with 0.05 nM [125I-Tyr0]Svg, HEK-293 membranes; 95% CI (0.72-1.1)
[3] = target: T1, rat CRF binding protein C-terminally fused with a His6 sequence (rat); experiment: SPA competition with 0.1 nM [125I-Tyr0]h/rCRF, His-tagged rCRFBP; 95% CI (0.66-1.0)
[4] = target: mouse CRF receptor, type 2β (mouse) (UniProt Q60748); experiment: SPA competition with 0.05 nM [125I-Tyr0]Svg, HEK-293 membranes; 95% CI (0.56-1.1)

B1: sauvagine (ligand)
peptide: QGPPISIDLSLELLRKMIEIEKQEKEKQQAANNRLLLDTI
modifications: ends and bridges not checked
IC50 [1]: 57 nM | IC50 [2]: 0.92 nM

B2: [Ala^21,23Arg^22]Svg (peptide)
peptide: B1 peptide with E21A, K22R, Q23A
modifications: ends and bridges not checked
IC50 [3]: 0.84 nM | IC50 [4]: 0.82 nM
